Source: patent US20180371100A1 (Kyowa Kirin, published 2018)
Values joined by “and” are separate entries in the source; they are usually repeats but may differ in a detail not shown here. Identical values can stand only once.

target: T1, FLAG fusion human CRTH2 (human, UniProt Q9Y5Y4 1-395); assay: flow cytometry on FLAG fusion human CRTH2-expressing 3Y1-B cells; logistic fit of Geomean; ± is the standard error
T1 construct: Expressed on rat 3Y1-B cells; also called human CRTH2 with a C terminal to which a FLAG tag was added; not shown: FLAG tag at the C terminal
T1 sequence: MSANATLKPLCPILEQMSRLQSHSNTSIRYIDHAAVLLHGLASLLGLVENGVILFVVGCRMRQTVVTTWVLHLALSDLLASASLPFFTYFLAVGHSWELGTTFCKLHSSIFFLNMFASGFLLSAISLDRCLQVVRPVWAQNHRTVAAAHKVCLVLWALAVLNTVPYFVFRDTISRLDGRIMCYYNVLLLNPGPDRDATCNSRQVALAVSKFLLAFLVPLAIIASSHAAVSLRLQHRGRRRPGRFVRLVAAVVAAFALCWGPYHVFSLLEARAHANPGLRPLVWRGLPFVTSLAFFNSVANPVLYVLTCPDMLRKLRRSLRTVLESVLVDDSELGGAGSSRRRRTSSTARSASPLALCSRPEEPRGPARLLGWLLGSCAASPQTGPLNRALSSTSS
Protocol: FLAG fusion human CRTH2-expressing 3Y1-B cells were peeled using a 0.25% trypsin-EDTA (NACALAI TESQUE, Inc.), washed with PBS, and suspended with SM. Next, the cells were seeded in a 96-well plate such that one well has 1×10⁵ cells. Further, chLym2 or each of the humanized Lym2 antibodies was added at each final concentrations of 50000, 12500, 3125, 781, 195, 49, 12, and 3 ng/mL to cause a reaction at 4° C. for 60 minutes.
After the cells were washed with SM, Goat F(ab′)₂ Anti-Human IgG PE (γchain specific) (Southern Biotech Inc.) diluted 500 times with SM was added to cause a reaction at 4° C. for 60 minutes. The cells were washed with SM and resuspended with 50 μL of SM, and the fluorescent intensity was measured by flow cytometry (BD Biosciences, FACS CantoII).
The data was analyzed by FLowJo 7.65 (Tomy Digital Biology Co., Ltd.), curve fitting of the Geomean value in each concentration was performed using a Logistic curve, and the 50% effective concentration (EC₅₀) value of the binding of chLym2 and each humanized Lym2 antibody and the standard error (SE) value thereof were calculated using R language (Ver. 3.02) which is a language for statistical analysis.

Binder | EC50
humanized Lym2 antibody LV0HV0 (antibody, V domains shown) VH: EVQLVESGGGVVQPGRSLRLSCAASGFTFSNYYMAWVRQAPGKGLEWVATISYDGSSTYYRDSVKGRFTISRDNAKNSLYLQMNSLRAEDTAVYYCARHRGYYYSGAGYFDYWGQGTMVTVSS VL: DIVMTQTPLSLPVTPGESASISCRSSQSLEYSDGYTYLEWYLQKPGQSPQVLIYGVSNRFSGVPDRFSGSGSGTDFTLKISRVEAEDVGVYYCFQATHDPLTFGQGTKLEIK | 0.55 µg/mL and 0.87 µg/mL
humanized Lym2 antibody LV0HV2a (antibody, V domains shown) VH: EVQLVESGGGVVQPGRSLRLSCAASGFTFSNYYMAWVRQAPGKGLEWVATISYDGSSTYYRDSVKGRFTISRDNAKNSLYLQMNSLRAEDTATYYCARHRGYYYSGAGYFDYWGQGVMVTVSS VL: DIVMTQTPLSLPVTPGESASISCRSSQSLEYSDGYTYLEWYLQKPGQSPQVLIYGVSNRFSGVPDRFSGSGSGTDFTLKISRVEAEDVGVYYCFQATHDPLTFGQGTKLEIK | 0.65 µg/mL
humanized Lym2 antibody LV0HV2b (antibody, V domains shown) VH: EVQLVESGGGVVQPGRSMRLSCAASGFTFSNYYMAWVRQAPGKGLEWVATISYDGSSTYYRDSVKGRFTISRDNAKNSLYLQMNSLRAEDTAVYYCARHRGYYYSGAGYFDYWGQGVMVTVSS VL: DIVMTQTPLSLPVTPGESASISCRSSQSLEYSDGYTYLEWYLQKPGQSPQVLIYGVSNRFSGVPDRFSGSGSGTDFTLKISRVEAEDVGVYYCFQATHDPLTFGQGTKLEIK | 0.72 µg/mL
humanized Lym2 antibody LV0HV3 (antibody, V domains shown) VH: EVQLVESGGGVVQPGRSMRLSCAASGFTFSNYYMAWVRQAPGKGLEWVATISYDGSSTYYRDSVKGRFTISRDNAKNSLYLQMNSLRAEDTATYYCARHRGYYYSGAGYFDYWGQGVMVTVSS VL: DIVMTQTPLSLPVTPGESASISCRSSQSLEYSDGYTYLEWYLQKPGQSPQVLIYGVSNRFSGVPDRFSGSGSGTDFTLKISRVEAEDVGVYYCFQATHDPLTFGQGTKLEIK | 0.69 µg/mL
humanized Lym2 antibody LV0HV4 (antibody, V domains shown) VH: EVQLVESGGGVVQPGRSMRLSCAASGFTFSNYYMAWVRQAPGKGLEWVATISYDGSSTYYRDSVKGRFTISRDNAKSSLYLQMNSLRAEDTATYYCARHRGYYYSGAGYFDYWGQGVMVTVSS VL: DIVMTQTPLSLPVTPGESASISCRSSQSLEYSDGYTYLEWYLQKPGQSPQVLIYGVSNRFSGVPDRFSGSGSGTDFTLKISRVEAEDVGVYYCFQATHDPLTFGQGTKLEIK | 0.58 µg/mL and 0.67 µg/mL
humanized Lym2 antibody LV1HV0 (antibody, V domains shown) VH: EVQLVESGGGVVQPGRSLRLSCAASGFTFSNYYMAWVRQAPGKGLEWVATISYDGSSTYYRDSVKGRFTISRDNAKNSLYLQMNSLRAEDTAVYYCARHRGYYYSGAGYFDYWGQGTMVTVSS VL: DIVMTQTPLSLPVTLGESASISCRSSQSLEYSDGYTYLEWYLQKPGQSPQVLIYGVSNRFSGVPDRFSGSGSGTDFTLKISRVEAEDVGVYYCFQATHDPLTFGQGTKLEIK | 0.69 µg/mL
humanized Lym2 antibody LV1HV4 (antibody, V domains shown) VH: EVQLVESGGGVVQPGRSMRLSCAASGFTFSNYYMAWVRQAPGKGLEWVATISYDGSSTYYRDSVKGRFTISRDNAKSSLYLQMNSLRAEDTATYYCARHRGYYYSGAGYFDYWGQGVMVTVSS VL: DIVMTQTPLSLPVTLGESASISCRSSQSLEYSDGYTYLEWYLQKPGQSPQVLIYGVSNRFSGVPDRFSGSGSGTDFTLKISRVEAEDVGVYYCFQATHDPLTFGQGTKLEIK | 0.58 µg/mL
humanized Lym2 antibody LV2aHV0 (antibody, V domains shown) VH: EVQLVESGGGVVQPGRSLRLSCAASGFTFSNYYMAWVRQAPGKGLEWVATISYDGSSTYYRDSVKGRFTISRDNAKNSLYLQMNSLRAEDTAVYYCARHRGYYYSGAGYFDYWGQGTMVTVSS VL: DIVLTQTPLSLPVTLGESASISCRSSQSLEYSDGYTYLEWYLQKPGQSPQVLIYGVSNRFSGVPDRFSGSGSGTDFTLKISRVEAEDVGVYYCFQATHDPLTFGQGTKLEIK | 0.66 µg/mL
humanized Lym2 antibody LV2aHV4 (antibody, V domains shown) VH: EVQLVESGGGVVQPGRSMRLSCAASGFTFSNYYMAWVRQAPGKGLEWVATISYDGSSTYYRDSVKGRFTISRDNAKSSLYLQMNSLRAEDTATYYCARHRGYYYSGAGYFDYWGQGVMVTVSS VL: DIVLTQTPLSLPVTLGESASISCRSSQSLEYSDGYTYLEWYLQKPGQSPQVLIYGVSNRFSGVPDRFSGSGSGTDFTLKISRVEAEDVGVYYCFQATHDPLTFGQGTKLEIK | 0.51 µg/mL
humanized Lym2 antibody LV2bHV0 (antibody, V domains shown) VH: EVQLVESGGGVVQPGRSLRLSCAASGFTFSNYYMAWVRQAPGKGLEWVATISYDGSSTYYRDSVKGRFTISRDNAKNSLYLQMNSLRAEDTAVYYCARHRGYYYSGAGYFDYWGQGTMVTVSS VL: DIVMTQTPLSLPVTLGESASISCRSSQSLEYSDGYTYLEWYLQKPGQSPQVLIYGVSNRFSGVPDRFSGSGSGTDFTLKISRVEPEDVGVYYCFQATHDPLTFGQGTKLEIK | 0.67 µg/mL
humanized Lym2 antibody LV2bHV4 (antibody, V domains shown) VH: EVQLVESGGGVVQPGRSMRLSCAASGFTFSNYYMAWVRQAPGKGLEWVATISYDGSSTYYRDSVKGRFTISRDNAKSSLYLQMNSLRAEDTATYYCARHRGYYYSGAGYFDYWGQGVMVTVSS VL: DIVMTQTPLSLPVTLGESASISCRSSQSLEYSDGYTYLEWYLQKPGQSPQVLIYGVSNRFSGVPDRFSGSGSGTDFTLKISRVEPEDVGVYYCFQATHDPLTFGQGTKLEIK | 0.59 µg/mL
humanized Lym2 antibody LV2cHV0 (antibody, V domains shown) VH: EVQLVESGGGVVQPGRSLRLSCAASGFTFSNYYMAWVRQAPGKGLEWVATISYDGSSTYYRDSVKGRFTISRDNAKNSLYLQMNSLRAEDTAVYYCARHRGYYYSGAGYFDYWGQGTMVTVSS VL: DVVLTQTPLSLPVTPGESASISCRSSQSLEYSDGYTYLEWYLQKPGQSPQVLIYGVSNRFSGVPDRFSGSGSGTDFTLKISRVEAEDVGVYYCFQATHDPLTFGQGTKLEIK | 0.68 µg/mL
humanized Lym2 antibody LV2cHV4 (antibody, V domains shown) VH: EVQLVESGGGVVQPGRSMRLSCAASGFTFSNYYMAWVRQAPGKGLEWVATISYDGSSTYYRDSVKGRFTISRDNAKSSLYLQMNSLRAEDTATYYCARHRGYYYSGAGYFDYWGQGVMVTVSS VL: DVVLTQTPLSLPVTPGESASISCRSSQSLEYSDGYTYLEWYLQKPGQSPQVLIYGVSNRFSGVPDRFSGSGSGTDFTLKISRVEAEDVGVYYCFQATHDPLTFGQGTKLEIK | 0.54 µg/mL
humanized Lym2 antibody LV3aHV0 (antibody, V domains shown) VH: EVQLVESGGGVVQPGRSLRLSCAASGFTFSNYYMAWVRQAPGKGLEWVATISYDGSSTYYRDSVKGRFTISRDNAKNSLYLQMNSLRAEDTAVYYCARHRGYYYSGAGYFDYWGQGTMVTVSS VL: DVVLTQTPLSLPVTPGESASISCRSSQSLEYSDGYTYLEWYLQKPGQSPQVLIYGVSNRFSGVPDRFSGSGSGTDFTLKISRVEPEDVGVYYCFQATHDPLTFGQGTKLEIK | 0.7 µg/mL
humanized Lym2 antibody LV3aHV4 (antibody, V domains shown) VH: EVQLVESGGGVVQPGRSMRLSCAASGFTFSNYYMAWVRQAPGKGLEWVATISYDGSSTYYRDSVKGRFTISRDNAKSSLYLQMNSLRAEDTATYYCARHRGYYYSGAGYFDYWGQGVMVTVSS VL: DVVLTQTPLSLPVTPGESASISCRSSQSLEYSDGYTYLEWYLQKPGQSPQVLIYGVSNRFSGVPDRFSGSGSGTDFTLKISRVEPEDVGVYYCFQATHDPLTFGQGTKLEIK | 0.76 µg/mL
humanized Lym2 antibody LV3bHV0 (antibody, V domains shown) VH: EVQLVESGGGVVQPGRSLRLSCAASGFTFSNYYMAWVRQAPGKGLEWVATISYDGSSTYYRDSVKGRFTISRDNAKNSLYLQMNSLRAEDTAVYYCARHRGYYYSGAGYFDYWGQGTMVTVSS VL: DVVLTQTPLSLPVTLGESASISCRSSQSLEYSDGYTYLEWYLQKPGQSPQVLIYGVSNRFSGVPDRFSGSGSGTDFTLKISRVEAEDVGVYYCFQATHDPLTFGQGTKLEIK | 0.81 µg/mL
humanized Lym2 antibody LV3bHV4 (antibody, V domains shown) VH: EVQLVESGGGVVQPGRSMRLSCAASGFTFSNYYMAWVRQAPGKGLEWVATISYDGSSTYYRDSVKGRFTISRDNAKSSLYLQMNSLRAEDTATYYCARHRGYYYSGAGYFDYWGQGVMVTVSS VL: DVVLTQTPLSLPVTLGESASISCRSSQSLEYSDGYTYLEWYLQKPGQSPQVLIYGVSNRFSGVPDRFSGSGSGTDFTLKISRVEAEDVGVYYCFQATHDPLTFGQGTKLEIK | 0.53 µg/mL
humanized Lym2 antibody LV4HV0 (antibody, V domains shown) VH: EVQLVESGGGVVQPGRSLRLSCAASGFTFSNYYMAWVRQAPGKGLEWVATISYDGSSTYYRDSVKGRFTISRDNAKNSLYLQMNSLRAEDTAVYYCARHRGYYYSGAGYFDYWGQGTMVTVSS VL: DVVLTQTPLSLPVTLGESASISCRSSQSLEYSDGYTYLEWYLQKPGQSPQVLIYGVSNRFSGVPDRFSGSGSGTDFTLKISRVEPEDVGVYYCFQATHDPLTFGQGTKLEIK | 0.74 µg/mL
